Measurements as given in patent publication US5661001.

Assays:
[1] = target: α-thrombin
[2] = target: human thrombin (human) (UniProt P00734)

## [Cys^33 ]HV1--[Cys^33 ]HV1 dimer
[1]
  inhibition of α-thrombin digesting Chromozym TH: 82%
[2]
  titration against 2.0 nM thrombin in presence of 200 µM D-Val-Leu-Arg-p-nitroanilide: fraction of active molecules: 0.97
